This is an account of results in US20110165116A1.

One assay has as its target CCR2 (mouse) (UniProt P51683). Description: cell-based or functional assay.
Assay [1] addresses ICAM-1-Fc (Homo sapiens (Human)) (UniProt P05362). Kind of assay: laminar flow adhesion assay, human T cells on coated ICAM-1-Fc.
Sequence of UniProt P05362 (P05362 28-480 limits assumed): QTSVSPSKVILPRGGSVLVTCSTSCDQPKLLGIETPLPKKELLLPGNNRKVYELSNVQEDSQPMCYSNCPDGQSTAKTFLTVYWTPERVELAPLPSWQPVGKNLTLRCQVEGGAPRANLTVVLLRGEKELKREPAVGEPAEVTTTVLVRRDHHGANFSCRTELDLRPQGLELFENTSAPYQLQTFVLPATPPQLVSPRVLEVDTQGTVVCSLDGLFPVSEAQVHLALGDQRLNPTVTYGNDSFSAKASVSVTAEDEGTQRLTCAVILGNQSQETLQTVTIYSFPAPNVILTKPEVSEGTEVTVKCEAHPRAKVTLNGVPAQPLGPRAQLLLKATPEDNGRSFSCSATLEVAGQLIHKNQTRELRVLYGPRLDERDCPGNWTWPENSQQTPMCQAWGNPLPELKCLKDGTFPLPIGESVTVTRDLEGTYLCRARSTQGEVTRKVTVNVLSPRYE

Sequence of UniProt P51683 (P51683 whole entry): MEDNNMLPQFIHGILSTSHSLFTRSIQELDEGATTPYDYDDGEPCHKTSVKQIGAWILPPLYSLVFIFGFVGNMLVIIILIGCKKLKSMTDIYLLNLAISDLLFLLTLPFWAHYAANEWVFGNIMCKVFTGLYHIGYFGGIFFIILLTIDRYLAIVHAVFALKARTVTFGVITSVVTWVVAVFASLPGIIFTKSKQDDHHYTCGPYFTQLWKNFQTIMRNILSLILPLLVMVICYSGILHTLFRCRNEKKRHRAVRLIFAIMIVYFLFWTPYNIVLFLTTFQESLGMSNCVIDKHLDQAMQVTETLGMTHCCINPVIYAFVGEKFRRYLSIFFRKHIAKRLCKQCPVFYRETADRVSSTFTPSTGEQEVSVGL
Sequence of LFA-1 (P20701 26-1170): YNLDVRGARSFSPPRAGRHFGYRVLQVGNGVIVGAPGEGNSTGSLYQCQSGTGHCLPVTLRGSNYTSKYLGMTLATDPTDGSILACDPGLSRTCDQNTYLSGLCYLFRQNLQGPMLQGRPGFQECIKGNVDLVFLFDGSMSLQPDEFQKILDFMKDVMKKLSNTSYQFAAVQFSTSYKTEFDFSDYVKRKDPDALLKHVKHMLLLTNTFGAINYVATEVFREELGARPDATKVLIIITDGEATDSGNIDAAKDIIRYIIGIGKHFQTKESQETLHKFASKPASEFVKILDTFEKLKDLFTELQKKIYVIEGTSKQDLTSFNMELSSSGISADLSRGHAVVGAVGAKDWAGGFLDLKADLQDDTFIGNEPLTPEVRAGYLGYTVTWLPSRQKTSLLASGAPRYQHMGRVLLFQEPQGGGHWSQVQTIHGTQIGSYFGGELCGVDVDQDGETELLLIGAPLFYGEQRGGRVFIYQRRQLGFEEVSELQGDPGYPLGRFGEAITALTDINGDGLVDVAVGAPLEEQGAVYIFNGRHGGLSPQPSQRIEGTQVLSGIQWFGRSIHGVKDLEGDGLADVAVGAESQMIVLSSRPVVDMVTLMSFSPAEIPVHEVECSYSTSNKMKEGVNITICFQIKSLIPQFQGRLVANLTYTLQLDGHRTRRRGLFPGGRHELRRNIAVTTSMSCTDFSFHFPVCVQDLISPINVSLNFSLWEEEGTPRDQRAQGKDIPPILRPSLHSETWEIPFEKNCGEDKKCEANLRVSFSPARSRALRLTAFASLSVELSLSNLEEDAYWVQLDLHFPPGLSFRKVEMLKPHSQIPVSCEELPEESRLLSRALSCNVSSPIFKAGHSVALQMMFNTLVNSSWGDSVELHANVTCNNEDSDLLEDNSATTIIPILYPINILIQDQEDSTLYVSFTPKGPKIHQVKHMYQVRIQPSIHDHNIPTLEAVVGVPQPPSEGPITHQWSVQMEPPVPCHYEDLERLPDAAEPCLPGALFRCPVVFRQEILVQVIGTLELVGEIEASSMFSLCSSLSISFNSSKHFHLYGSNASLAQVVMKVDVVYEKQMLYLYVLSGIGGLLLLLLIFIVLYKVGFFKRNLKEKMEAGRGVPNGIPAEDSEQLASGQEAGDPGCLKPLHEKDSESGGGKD
Sequence of LFA-1 (P05107 23-769, further chain): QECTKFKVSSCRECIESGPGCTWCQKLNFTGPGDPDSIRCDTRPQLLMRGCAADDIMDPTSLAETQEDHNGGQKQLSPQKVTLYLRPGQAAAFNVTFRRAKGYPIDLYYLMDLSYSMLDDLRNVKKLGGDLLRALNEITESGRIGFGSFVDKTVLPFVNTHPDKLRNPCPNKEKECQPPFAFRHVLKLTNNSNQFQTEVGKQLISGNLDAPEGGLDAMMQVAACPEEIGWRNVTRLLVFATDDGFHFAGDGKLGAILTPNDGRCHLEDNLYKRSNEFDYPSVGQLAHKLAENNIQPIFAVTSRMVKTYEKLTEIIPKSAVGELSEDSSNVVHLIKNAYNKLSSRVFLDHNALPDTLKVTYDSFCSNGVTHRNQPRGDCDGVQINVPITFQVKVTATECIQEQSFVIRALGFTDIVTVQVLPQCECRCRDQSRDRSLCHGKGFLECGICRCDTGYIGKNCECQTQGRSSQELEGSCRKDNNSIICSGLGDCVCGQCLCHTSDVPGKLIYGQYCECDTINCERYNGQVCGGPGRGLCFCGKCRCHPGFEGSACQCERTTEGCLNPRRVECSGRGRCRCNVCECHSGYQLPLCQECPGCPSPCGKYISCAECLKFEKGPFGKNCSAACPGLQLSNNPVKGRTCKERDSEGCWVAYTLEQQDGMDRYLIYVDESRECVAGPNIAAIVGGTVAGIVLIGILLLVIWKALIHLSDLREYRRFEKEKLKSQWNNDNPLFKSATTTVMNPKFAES

As for CCL2 (ligand), in the assay with CCR2 (mouse), the decrease in actin polymerization of naive T cells induced by CXCL12 or CCL21 (FITC-phalloidin, FACS) is 40 to 50% and the decrease in migration of naive T cells in a Transwell assay towards CXCL12 or CCL21 after pretreatment with CCL2 (0.1 ng/ml) fell in the range of 40 to 50%. Take “LFA-1 (from UniProt P20701 26-1170; P05107 23-769) (receptor; other documents disagree on this pair)”: in assay [1], the percent of cellular tethers to ICAM-1 blocked by LFA-1 blockers was more than 90%.
